Results: patent US20160340421A1 (Regeneron, published 2016)
Ends that are not written are not given here. * marks the point of attachment. Biotin = O=C1N[C@H]2[C@H](CS[C@H]2CCCCC(=O)*)N1

Experiments:
[1] = target: T1, Human GDF8 homodimer (mature human Growth and Differentiation Factor-8) (human, UniProt O14793 267-375); assay: SPR Biacore T100, captured on anti-hFc, 37°C
T1 construct: also called hGDF8; myostatin
T1 sequence: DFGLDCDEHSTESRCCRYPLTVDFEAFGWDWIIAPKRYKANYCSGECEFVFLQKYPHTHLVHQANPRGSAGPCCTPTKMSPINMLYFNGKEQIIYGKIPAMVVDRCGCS
Experimental: Additional antigen binding experiments were conducted in which GDF8 and GDF11 were applied over a surface of selected anti-GDF8 antibodies and control antibodies at 25° C. and 37° C. Equilibrium dissociation constants (KD values) for antigen binding to selected antibodies were determined by surface kinetics using a real-time biosensor surface plasmon resonance assay (BIACORE™ T100). […] Various concentrations (2.5-0.625 nM, 2-fold dilutions) of hGDF8 homodimer or hGDF11 homodimer (or in some experiments, Activin A) were injected over the captured antibody surfaces, and antigen-antibody binding and dissociation were monitored in real time. Kinetic analysis was performed to calculate KD, dissociation rate constants (kd), association rate constants (ka) and half-life of antigen/antibody complex dissociation. (NB=no binding observed).

[2] = target: T2, GDF11 (from serum of treated C57BL6 mice) (mouse, UniProt Q9Z1W4 297-405, limits assumed); assay: pull-down from serum of treated mice with anti human Fc beads, mass spectrometry
T2 sequence (looked up): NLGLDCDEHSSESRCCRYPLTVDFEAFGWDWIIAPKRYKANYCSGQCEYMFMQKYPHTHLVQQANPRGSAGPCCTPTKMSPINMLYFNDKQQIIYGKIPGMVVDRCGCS
Experimental: (§1) To examine the specificity of H4H1657N2 in vivo, C57BL6 mice were injected with drug, and serum from treated mice was subjected to a mass spectrometry based ligand “fishing” experiment. Briefly, drug (H4H1657N2, Control IV or isotype negative control) was injected multiple times (Day 0, D3, D7, D10) over a 14-day period into C57BL6 mice. Animals were sacrificed on D14 and serum was incubated with anti human Fc beads. The beads were washed and bound material was eluted with SDS-PAGE loading buffer. Eluted material was subjected to SDS-PAGE and gel slices corresponding to a molecular weight range of 5-20 kDa were excised. Samples were processed for mass spectrometry using standard reduction, alkylation and trypsinization conditions. Digests were separated on a nano C18 column and automatically spotted onto Bruker Anchor Targets. MALDI-MS (MS/MS) analysis (Bruker Ultraflextreme) was performed in an automated fashion, using LC-WARP (Bruker Daltonics). The mass spectra were searched using MASCOT (Matrix Science) and results were evaluated relative to the isotype control.

[3] = target: T3, Inhibin beta A chain (from serum of treated C57BL6 mice) (mouse, UniProt Q04998 309-424, limits assumed); assay: as above
T3 sequence (looked up): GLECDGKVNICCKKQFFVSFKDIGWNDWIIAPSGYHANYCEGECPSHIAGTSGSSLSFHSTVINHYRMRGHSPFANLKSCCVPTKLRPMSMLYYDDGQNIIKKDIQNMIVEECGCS
Experimental: as §1

[4] = target: T4, hGDF8 peptide 2 (1-18), C-terminal biotinylated (human, cysteine pairing not given here); assay: Luminex peptide beads
T4 construct: also called peptide 2 C-term
T4 peptide: DFGLDCDEHSTESRCCRY-biotin
From the text: (§2) Fourteen peptides (Table 10) were generated from mature hGDF8 (SEQ ID NO:340). Unmodified peptides, N-terminal biotinylated peptides (N-term), or C-terminal biotinylated peptides (C-term) were used to test and localize antibody binding. Full-length hGDF8, hGDF11 and unmodified peptides were each individually amine-coupled to xMAP® Multi-Analyte COOH Microspheres (or beads). Each of the biotinylated peptides was bound to xMAP® Multi-Analyte LumAvidin Microspheres. Peptide-bound beads suspension were then mixed with an equal volume of blocking buffer (PBS, 1%13SA, 0.05% Tween20, 0.05% Sodium azide) and then distributed into a 96 well filter plate (Millipore, MULTISCREEN® BV). Control and test anti-hGDF8 antibodies, at 2.5 μg/ml were then added to the peptide-bound beads suspension and were allowed to bind to the beads at RT, overnight. The antibody-incubated beads were then washed twice with PBST (PBS+0.05% Tween20) and incubated with either Phycoerythrin (PE) conjugated anti-hFC or PE-conjugated anti-mFC antibodies at RT for 45 min. The beads were washed again and the antibody binding signal to various peptides were detected with either LUMINEX® 100™ or 200™ instruments.

[5] = target: T5, hGDF8 peptide 12 (73-90), N-terminal biotinylated (human, cysteine pairing not given here); assay: Luminex peptide beads
T5 construct: also called peptide 12 N-term
T5 peptide: Biotin-CCTPTKMSPINMLYFNGK
From the text: as §2

[6] = target: T6, hGDF8 peptide 13 (75-105), C-terminal biotinylated (human, C-terminal biotin); assay: Luminex peptide beads
T6 construct: also called peptide 13 C-term
T6 peptide: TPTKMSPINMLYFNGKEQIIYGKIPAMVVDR
From the text: as §2

[7] = target: T7, hGDF8 peptide 6 (48-72), C-terminal biotinylated (human, C-terminal biotin); assay: Luminex peptide beads
T7 construct: also called peptide 6 C-term
T7 peptide: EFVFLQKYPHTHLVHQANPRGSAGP
From the text: as §2

[8] = target: T8, hGDF8 peptide 11 (65-72), C-terminal biotinylated (human); assay: Luminex peptide beads
T8 construct: also called peptide 11 C-term
T8 peptide: NPRGSAGP-biotin
From the text: as §2

[9] = target: T9, hGDF8 peptide 11 (65-72), unmodified (human); assay: Luminex peptide beads
T9 peptide: NPRGSAGP
From the text: as §2

[10] = target: T10, hGDF8 peptide 12 (73-90), C-terminal biotinylated (human, cysteine pairing not given here); assay: Luminex peptide beads
T10 construct: also called peptide 12 C-term
T10 peptide: CCTPTKMSPINMLYFNGK-biotin
From the text: as §2

[11] = target: T11, hGDF8 peptide 3 (17-42), unmodified (human); assay: Luminex peptide beads
T11 peptide: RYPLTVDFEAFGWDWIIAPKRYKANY
From the text: as §2

[12] = target: T12, hGDF8 peptide 3 (17-42), C-terminal biotinylated (human, C-terminal biotin); assay: Luminex peptide beads
T12 construct: also called peptide 3 C-term
T12 peptide: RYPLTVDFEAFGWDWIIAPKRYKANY
From the text: as §2

[13] = target: T13, hGDF8 peptide 7 (52-65), C-terminal biotinylated (human); assay: Luminex peptide beads
T13 construct: also called peptide 7 C-term
T13 peptide: LQKYPHTHLVHQAN-biotin
From the text: as §2

[14] = target: T14, hGDF8 peptide 1 (1-14), N-terminal biotinylated (human); assay: Luminex peptide beads
T14 construct: also called peptide 1 N-term
T14 peptide: Biotin-DFGLDCDEHSTESR
From the text: as §2

[15] = target: T15, hGDF8 peptide 14 (91-105), C-terminal biotinylated (human); assay: Luminex peptide beads
T15 construct: also called peptide 14 C-term
T15 peptide: EQIIYGKIPAMVVDR-biotin
From the text: as §2

[16] = target: T16, hGDF8 peptide 1 (1-14), unmodified (human); assay: Luminex peptide beads
T16 peptide: DFGLDCDEHSTESR
From the text: as §2

[17] = target: T17, hGDF8 peptide 10 (56-72), unmodified (human); assay: Luminex peptide beads
T17 peptide: PHTHLVHQANPRGSAGP
From the text: as §2

[18] = target: T18, hGDF8 peptide 6 (48-72), N-terminal biotinylated (human, N-terminal biotin); assay: Luminex peptide beads
T18 construct: also called peptide 6 N-term
T18 peptide: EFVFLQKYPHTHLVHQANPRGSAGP
From the text: as §2

- Kd [1]: 0.0379 nM
- T1/2 [1]: 1.52 h
- binding result [2]: no binding
- binding result [3]: no binding
- binding result [4]: no binding (tested: 2.5 µg/ml)
- binding result [5]: no binding (tested: 2.5 µg/ml)
- binding result [6]: no binding (tested: 2.5 µg/ml)
- binding result [7]: no binding (tested: 2.5 µg/ml)
- binding result [8]: no binding (tested: 2.5 µg/ml)
- binding result [9]: no binding (tested: 2.5 µg/ml)
- binding result [10]: no binding (tested: 2.5 µg/ml)
- binding result [11]: no binding (tested: 2.5 µg/ml)
- binding result [12]: no binding (tested: 2.5 µg/ml)
- binding result [13]: no binding (tested: 2.5 µg/ml)
- binding result [14]: no binding (tested: 2.5 µg/ml)
- binding result [15]: no binding (tested: 2.5 µg/ml)
- binding result [16]: no binding (tested: 2.5 µg/ml)
- binding result [17]: no binding (tested: 2.5 µg/ml)
- binding result [18]: no binding (tested: 2.5 µg/ml)
B1: H4H1657N2 (antibody, V domains shown)
VH: EVQVLESGGDLVQPGGSLRLSCAASGFTFSAYAMTWVRQAPGKGLEWVSAISGSGGSAYYADSVKGRFTISRDNSKNTVYLQMNSLRAEDTAVYYCAKDGAWKMSGLDVWGQGTTVIVSS
VL: DIQMTQSPASLSASVGDRVTITCRASQDISDYLAWYQQKPGKIPRLLIYTTSTLQSGVPSRFRGSGSGTDFTLTISSLQPEDVATYYCQKYDSAPLTFGGGTKVEIK
notes: captured by anti-hFc, so human Fc
